Here are results for two molecules from article PMC9865957, “^68Ga-HBED-CC-WL-12 PET in Diagnosing and Differentiating Pancreatic Cancers in Murine Models” (Pharmaceuticals, 2023).

Data set [1] in a line: in vivo. The following applies: female, C57BL/6, mouse, iv, 3.7 MBq, total radioactivity. As for the experimental part:
C57BL/6 female mice were obtained from Shanghai Lingchang Biotechnology Co., LTD, Shanghai, China. The animals were kept in the Animal Experiment Center of Shanghai Changhai Hospital of SPF level. Then, 1 × 10^6 PANC02 cells in 0.1 mL mixture of PBS and Matrigel at a 1:1 ratio was inoculated subcutaneous into the right trunk of the mice. When the tumor reached an average volume of 300–500 mm^3, in vivo experiments of tracer metabolism were performed.
All imaging acquisition was performed on a clinical PET-CT scanner (Biograph64, Siemens Healthcare, Erlangen, Germany). Before imaging, the model mice were injected with 50 μL sodium pentobarbital (3%) into the abdominal cavity for anesthesia. […] For quantification of tracer uptake, 3D regions of interest (ROI) were drawn on the muscle, liver, and tumor.

The subject of data set [2] is PANC02 cells. The data set is described as follows: Cellular uptake assay, PANC02 cells. Type of data set: cell-based, murine. The note with it: 1.5 kBq tracer, 45 min incubation with constant shaking, γ-counter, mean ± SD. The procedure:
(§1) Murine pancreatic cancer cell PANC02 and human glioma cancer cell U87MG were obtained from Tongpai Biotechnology Co., LTD. The cells were cultured in DMEM medium containing 10% fetal bovine serum (FBS) and 1% penicillin–streptomycin. The cells grew adherent when cultured at 37 °C, 5% CO2, and appropriate humidity.
(§2) PANC02 and U87MG cells incubated to a confluence of approximately 80% in a 10 cm Petri dish were digested, centrifugated, and separated to several EP tubes. Then, the cells were incubated with 1.5 kBq ^68Ga-WL12 in a state of constant shaking for 5, 15, 30, and 45 min. At each time point, precipitation of cells was collected after centrifugating and washing by PBS. The radioactivity for each sample was measured by a γ-counter and calculated as the percentage.

A short description of data set [3]: in vitro. The following applies: 10% FBS (serum). As for the experimental part: The radiochemical purity of [^68Ga]-WL12 was determined by thin-layer chromatography (ITLC) using glass microfiber chromatography paper impregnated with a silica gel as the stationary phase and acetonitrile (50%) as the mobile phase. For the evaluation of in vitro stability, [^68Ga]-WL12 was incubated at 37 °C with saline and 10% serum, respectively, for 60 min. Aliquots (3.7 kBq) of each radiolabeled ligand were taken and analyzed by ITLC.

For data set [4], the system named is U87MG cells. The data set can be described thus: Cellular uptake assay, U87MG cells. Type of data set: cell-based, human. The following applies: 1.5 kBq tracer, 45 min incubation with constant shaking, γ-counter, mean ± SD. The procedure: as §1, §2
A short description of data set [5]: In vitro stability in saline (ITLC). The format is physicochemical. The following applies: 37 °C, read-out ITLC (silica gel paper, 50% acetonitrile), mean ± SD.

Some results are limits rather than exact numbers.

For the molecule `CCCC[C@H]1C(=O)N(C)[C@@H](CCCC)C(=O)N[C@@H](CCCNC(=O)CCc2ccc(O)c(CN(CCN(CC(=O)O)Cc3cc(CCC(=O)O)ccc3O)CC(=O)O)c2)C(=O)N[C@H](C(=O)NCC(N)=O)CSCC(=O)N[C@@H](Cc2ccc(O)cc2)C(=O)N(C)[C@@H](C)C(=O)N[C@@H](CC(N)=O)C(=O)N2CCC[C@H]2C(=O)N[C@@H](Cc2c[nH]cn2)C(=O)N[C@@H](CC(C)C)C(=O)N2C[C@H](O)C[C@H]2C(=O)N[C@@H](Cc2c[nH]c3ccccc23)C(=O)N[C@@H](CO)C(=O)N[C@@H](Cc2cn(C)c3ccccc23)C(=O)N1C` [^68Ga-HBED-CC-WL12, metal not drawn], in data set [1], the SUV at 20 min was 0.37 SUV and the SUV at 1.5 h was found to be 0.38 ± 0.02 SUV. Also, the tissue to tissue ratio at 1.5 h in data set [1] (tumor-to-liver (T/L) ratio based on SUVmax) turned out to be 0.45 ± 0.03. Further, the tissue to tissue ratio at 1.5 h in data set [1] (tumor-to-muscle (T/M) ratio based on SUVmax) was above 2. In data set [2], the “specific binding rate in PANC02” value is listed as 31.2 ± 9.4%. Moreover, in data set [3], the amount remaining at 1 h stood at 56.5 ± 2.3%. Besides, the “specific binding rate in U87MG” value in data set [4] is given as 37.7 ± 2.4%. The “RCP after 60 min incubation in saline” value in data set [5] worked out at 92.5 ± 1.5%.

For the molecule `N=C(N)NCCC[C@@H]1NC(=O)[C@H](CCCCNC(=O)CC[C@H](NC(=O)CN2CCN(CC(=O)O)CCN(CC(=O)O)CCN(CC(=O)O)CC2)C(=O)NCCCC[C@@H]2NC(=O)[C@@H](Cc3ccccc3)NC(=O)[C@H](CC(=O)O)NC(=O)CNC(=O)[C@H](CCCNC(=N)N)NC2=O)NC(=O)[C@@H](Cc2ccccc2)NC(=O)[C@H](CC(=O)O)NC(=O)CNC1=O` [^68Ga-RGD, metal not drawn, reference compound], in data set [1], the SUV at 1 h is below 0.05 SUV.
